Substrate in series [1]: Cc1cc2nc3c(=O)[nH]c(=O)nc-3n(C[C@H](O)[C@H](O)[C@H](O)COP(=O)(O)O)c2cc1C
As to the kind of experiment: purified protein. Format: biochemical, Entamoeba histolytica. As to conditions: apparent, ATP fixed 100 µM (table footnote prints mM), 5 mM MgCl2, 50 mM Tris-HCl pH 7.5, 35°C.

Substrate in series [2]: Nc1ncnc2c1ncn2[C@@H]1O[C@H](COP(=O)(O)OP(=O)(O)OP(=O)(O)O)[C@@H](O)[C@H]1O
As to the kind of experiment: purified protein. As to conditions: apparent, FMN fixed 200 µM (table footnote prints mM), 5 mM MgCl2, 50 mM Tris-HCl pH 7.5, 35°C. It counts as biochemical, Entamoeba histolytica.

B1: EhFADS (EHI_198800) (Entamoeba histolytica HM-1:IMSS) (protein)
chain: MKGKTKQTKQILHDLKERFGEGPYEVMIAGTFDLIHPGHIHFIQEAAQFGRVIVIIARDSVVKRIKQRETVLDEKMRQSIVEGIKGVSEVVLGCENGNWYEPILKRNPHLFLMGFNQPGDLFRFEKVIHEKGGRTIFRRSNSMEKSYSLQSSSQIRRRVIEIVNNKIQ
For B1, in series [1], the Km turned out to be 0.0707 ± 0.0071 mM, the Vmax was 0.06 µmol/min/mg and the kcat was 0.0202 ± 0.002 s⁻¹. In series [2], the Km worked out at 0.0439 ± 0.0079 mM, the Vmax is 0.0649 µmol/min/mg and the kcat stood at 0.0218 ± 0.000333 s⁻¹.

The values above are taken from article PMC11423594, “Identification and characterization of archaeal-type FAD synthase as a novel tractable drug target from the parasitic protozoa Entamoeba histolytica” (mSphere, 2024).
